Data published in patent US20200199213A1 (Eli Lilly, published 2020).

Target: T1, mouse LPL (mouse, UniProt P11152 28-474)
T1 sequence (looked up): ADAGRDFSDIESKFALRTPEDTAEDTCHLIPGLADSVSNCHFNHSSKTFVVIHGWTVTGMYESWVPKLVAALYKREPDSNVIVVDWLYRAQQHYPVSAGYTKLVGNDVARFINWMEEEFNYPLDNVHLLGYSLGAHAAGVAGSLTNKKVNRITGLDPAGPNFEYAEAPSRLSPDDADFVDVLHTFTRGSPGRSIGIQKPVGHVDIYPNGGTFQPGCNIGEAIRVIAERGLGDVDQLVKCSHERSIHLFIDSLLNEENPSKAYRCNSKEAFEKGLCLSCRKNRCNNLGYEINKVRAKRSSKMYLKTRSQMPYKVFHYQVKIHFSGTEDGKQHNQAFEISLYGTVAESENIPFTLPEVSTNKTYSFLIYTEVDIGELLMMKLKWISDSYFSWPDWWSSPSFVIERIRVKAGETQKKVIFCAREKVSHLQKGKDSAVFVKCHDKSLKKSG
Experiment: cell-based or functional assay

IC80 concentration (inhibition of LPL activity): 0.13 nM
B1: mouse ANGPTL3/8 complex (other)
chain 1: SRVDPDLSSFDSAPSEPKSRFAMLDDVKILANGLLQLGHGLKDFVHKTKGQINDIFQKLNIFDQSFYDLSLRTNEIKEEEKELRRTTSTLQVKNEEVKNMSVELNSKLESLLEEKTALQHKVRALEEQLTNLILSPAGAQEHPEVTSLKSFVEQQDNSIRELLQSVEEQYKQLSQQHMQIKEIEKQLRKTGIQEPSENSLSSKSRAPRTTPPLQLNETENTEQDDLPADCSAVYNRGEHTSGVYTIKPRNSQGFNVYCDTQSGSPWTLIQHRKDGSQDFNETWENYEKGFGRLDGEFWLGLEKIYAIVQQSNYILRLELQDWKDSKHYVEYSFHLGSHETNYTLHVAEIAGNIPGALPEHTDLMFSTWNHRAKGQLYCPESYSGGWWWNDICGENNLNGKYNKPRTKSRPERRRGIYWRPQSRKLYAIKSSKMMLQPTT
chain 2: VRPAPVAPLGGPEPAQYEELTLLFHGALQLGQALNGVYRATEARLTEAGHSLGLYDRALEFLGTEVRQGQDATQELRTSLSEIQVEEDALHLRAEATARSLGEVARAQQALRDTVRRLQVQLRGAWLGQAHQEFETLKARADKQSHLLWALTGHVQRQQREMAEQQQWLRQIQQRLHTAALPA
